Data reported in PMC7455699, “Rapid high-yield expression and purification of fully post-translationally modified recombinant clusterin and mutants” (Scientific Reports, 2020).

Target: the molecule itself
Assay: mass photometry; proteins at 1 nM in PBS (pH 7.4), 10 µl analysed over 10 min; monomer (a single disulphide-linked α-β structure) to dimer (two non-covalently associated α-β structures)

Protein | percent of species in solution that is dimer | stoichiometry N
clusterin purified from human plasma (natural protein, One 'monomer' is a single α-β structure joined by 5 disulfide bonds; The protein is N-glycosylated at six sites; also called pCLU; human plasma CLU) chain 1: DQTVSDNELQEMSNQGSKYVNKEIQNAVNGVKQIKTLIEKTNEERKTLLSNLEEAKKKKEDALNETRESETKLKELPGVCNETMMALWEECKPCLKQTCMKFYARVCRSGSGLVGRQLEEFLNQSSPFYFWMNGDRIDSLLENDRQQTHMLDVMQDHFSRASSIIDELFQDRFFTREPQDTYHYLPFSLPHRRPHFFFPKSRIVR chain 2: SLMPFSPYEPLNFHAMFQPFLEMIHEAQQAMDIHFHSPAFQHPPTEFIREGDDDRTVCREIRHNSTGCLRMKDQCDKCREILSVDCSTNNPSQAKLRRELDESLQVAERLTRKYNELLKSYQWKMLNTSSLLEQLNEQFNWVSRLANLTQGEDQYYLRVTTVASHTSDSDVPSGVTEVVVKLFDSDPITVTVPVEVSRKNPKFMETVAEKALQEYRKKHREE | ~60% | 2
wild type recombinant human clusterin with a twin Streptag at the C-terminus of the α-chain (natural protein, The tag is separated from the inter-chain cleavage motif by a 4-glycine spacer; About 90-95% of the protein is cleaved into α- and β-chains, and it is glycosylated; also called rCLU-αC-ST; rCLU-ST; source: MEXi293E cells, transfected, secreted into protein-free medium, purified (Streptactin-XT); not shown: twin Streptag, C-terminal, kept) chain 1: SLMPFSPYEPLNFHAMFQPFLEMIHEAQQAMDIHFHSPAFQHPPTEFIREGDDDRTVCREIRHNSTGCLRMKDQCDKCREILSVDCSTNNPSQAKLRRELDESLQVAERLTRKYNELLKSYQWKMLNTSSLLEQLNEQFNWVSRLANLTQGEDQYYLRVTTVASHTSDSDVPSGVTEVVVKLFDSDPITVTVPVEVSRKNPKFMETVAEKALQEYRKKHREE chain 2: DQTVSDNELQEMSNQGSKYVNKEIQNAVNGVKQIKTLIEKTNEERKTLLSNLEEAKKKKEDALNETRESETKLKELPGVCNETMMALWEECKPCLKQTCMKFYARVCRSGSGLVGRQLEEFLNQSSPFYFWMNGDRIDSLLENDRQQTHMLDVMQDHFSRASSIIDELFQDRFFTREPQDTYHYLPFSLPHRRPHFFFPKSRIVR | ~60% | 2
wild type recombinant human clusterin with the C-tag at the C-terminus of the β-chain (natural protein, The protein is cleaved into α- and β-chains and is glycosylated; also called rCLU-CT; source: MEXi293E cells, transfected, secreted into protein-free medium, purified (Capture Select C-tag column); not shown: C-tag (EPEA), C-terminal, kept) chain 1: SLMPFSPYEPLNFHAMFQPFLEMIHEAQQAMDIHFHSPAFQHPPTEFIREGDDDRTVCREIRHNSTGCLRMKDQCDKCREILSVDCSTNNPSQAKLRRELDESLQVAERLTRKYNELLKSYQWKMLNTSSLLEQLNEQFNWVSRLANLTQGEDQYYLRVTTVASHTSDSDVPSGVTEVVVKLFDSDPITVTVPVEVSRKNPKFMETVAEKALQEYRKKHREE chain 2: DQTVSDNELQEMSNQGSKYVNKEIQNAVNGVKQIKTLIEKTNEERKTLLSNLEEAKKKKEDALNETRESETKLKELPGVCNETMMALWEECKPCLKQTCMKFYARVCRSGSGLVGRQLEEFLNQSSPFYFWMNGDRIDSLLENDRQQTHMLDVMQDHFSRASSIIDELFQDRFFTREPQDTYHYLPFSLPHRRPHFFFPKSRIVR | ~60% | 2
